Drawing on PMC9774280, “Colon-Targeted eNAMPT-Specific Peptide Systems for Treatment of DSS-Induced Acute and Chronic Colitis in Mouse” (Antioxidants, 2022), this text covers Kd for one molecule.

Experiment [1] has as its target fluorescently labeled TLR4 (recombinant) (UniProt O00206 24-839, fluorescently labeled). As to the kind of experiment: other fluorescence titration; fluorescently labeled TLR4 or CYBB titrated with unlabeled NAMPT; recombinant proteins; Kd by curve fit analysis. The following applies: both partners purified.
Experiment [2] addresses fluorescently labeled CYBB (recombinant) (UniProt P04839 1-570, fluorescently labeled). The experiment is described as above. Particulars: both partners purified.

Chain of fluorescently labeled CYBB (recombinant) (P04839 whole entry): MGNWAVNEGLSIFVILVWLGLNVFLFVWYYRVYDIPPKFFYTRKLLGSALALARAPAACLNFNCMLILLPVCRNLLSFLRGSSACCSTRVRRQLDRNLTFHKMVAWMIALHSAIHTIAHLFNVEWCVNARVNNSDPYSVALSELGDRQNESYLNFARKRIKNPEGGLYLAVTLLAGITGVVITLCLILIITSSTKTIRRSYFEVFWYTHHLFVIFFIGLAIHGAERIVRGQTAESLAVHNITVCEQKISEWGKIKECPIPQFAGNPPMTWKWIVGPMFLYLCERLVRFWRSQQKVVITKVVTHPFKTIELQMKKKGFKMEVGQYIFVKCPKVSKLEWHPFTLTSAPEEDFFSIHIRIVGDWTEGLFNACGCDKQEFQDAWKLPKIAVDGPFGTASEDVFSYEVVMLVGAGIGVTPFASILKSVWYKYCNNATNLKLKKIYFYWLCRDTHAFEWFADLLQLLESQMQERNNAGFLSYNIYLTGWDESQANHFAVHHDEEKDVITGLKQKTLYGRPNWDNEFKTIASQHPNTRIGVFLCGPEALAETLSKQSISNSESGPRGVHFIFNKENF

B1: recombinant NAMPT protein (natural protein, UniProt P43490 1-491, looked up)
chain: MNPAAEAEFNILLATDSYKVTHYKQYPPNTSKVYSYFECREKKTENSKLRKVKYEETVFYGLQYILNKYLKGKVVTKEKIQEAKDVYKEHFQDDVFNEKGWNYILEKYDGHLPIEIKAVPEGFVIPRGNVLFTVENTDPECYWLTNWIETILVQSWYPITVATNSREQKKILAKYLLETSGNLDGLEYKLHDFGYRGVSSQETAGIGASAHLVNFKGTDTVAGLALIKKYYGTKDPVPGYSVPAAEHSTITAWGKDHEKDAFEHIVTQFSSVPVSVVSDSYDIYNACEKIWGEDLRHLIVSRSTQAPLIIRPDSGNPLDTVLKVLEILGKKFPVTENSKGYKLLPPYLRVIQGDGVDINTLQEIVEGMKQKMWSIENIAFGSGGGLLQKLTRDLLNCSFKCSYVVTNGLGINVFKDPVADPNKRSKKGRLSLHRTPAGNFVTLEEGKGDLEEYGQDLLHTVFKNGKVTKSYSFDEIRKNAQLNIELEAAHH
notes: recombinant NAMPT protein added to BMDMs and precipitated with anti-His; The His tag is known only from the anti-His precipitation; also called rNAMPT; eNAMPT; source: recombinant
Consider B1, for which the results for the Kd in experiment [1] and in experiment [2] were 219 nM and 896 nM, respectively.

In general, Kd refers to the equilibrium constant for the complex coming apart.
